The values below come from PMC10419500, “FvWRKY50 is an important gene that regulates both vegetative growth and reproductive growth in strawberry”.

This data set concerns the target FvWRKY50-His (Fragaria vesca? (diploid strawberry; …, UniProt A0A2H4G369 6-213). Nature of the data set: EMSA; 200-fold unlabeled probe used as competitor; EMSA buffer, salt, pH and temperature not given in the material. The settings on record: protein: recombinant, tags: His (pET30a; also written His-FvWRKY50), blunt.

Sequence of FvWRKY50-His (Fragaria vesca? (A0A2H4G369 entry or part of it): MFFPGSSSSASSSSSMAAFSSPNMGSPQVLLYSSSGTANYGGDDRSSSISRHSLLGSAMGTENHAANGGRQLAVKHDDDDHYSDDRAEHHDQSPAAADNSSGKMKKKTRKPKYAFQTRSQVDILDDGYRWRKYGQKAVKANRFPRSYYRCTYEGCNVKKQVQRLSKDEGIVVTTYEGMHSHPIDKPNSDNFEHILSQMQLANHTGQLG

B1: proFT3 probe W982 (dsDNA)
DNA 1: GATCCATTTCCATTGACCAGACTCACCTCAC
DNA 2: GTGAGGTGAGTCTGGTCAATGGAAATGGATC
For the molecule B1, the binding result (label: biotin) is “binds”.

B2: proDFR probe W290 (dsDNA)
DNA 1: CTTATATCCACATCTTGACCGTTCAGTTTATAG
DNA 2: CTATAAACTGAACGGTCAAGATGTGGATATAAG
Regarding B2, the binding result is on record as “binds”.

B3: proCHI probe W1610 (dsDNA)
DNA 1: CTCATTTTACCAAGTTGACCCCTTCATTTG
DNA 2: CAAATGAAGGGGTCAACTTGGTAAAATGAG
Consider B3, for which the binding result was “binds”.
